From US20240402194A1 (QATAR FOUNDATION FOR EDUCATION SCIENCE AND COMMUNITY …, published 2024)
Each block holds one binder with its values, some of them ahead of it.

How the values were obtained:
[1] = target: α-synuclein aggregates from mouse (mouse, UniProt O55042 1-140); assay: filter retardation assay
[2] = target: mouse α-synuclein (WT-α-syn from mouse) (mouse, UniProt O55042 1-140); assay: method not named in the sentence (Western blot in the same paragraph)
[3] = target: β-synuclein (UniProt Q16143 1-134); assay: Western blot
[4] = target: γ-synuclein (UniProt O76070 1-127); assay: Western blot
Chain of γ-synuclein (O76070 whole entry): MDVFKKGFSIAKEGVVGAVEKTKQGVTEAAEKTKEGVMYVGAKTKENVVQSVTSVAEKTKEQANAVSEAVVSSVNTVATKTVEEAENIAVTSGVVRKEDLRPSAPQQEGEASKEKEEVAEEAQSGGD

Chain of β-synuclein (Q16143 whole entry): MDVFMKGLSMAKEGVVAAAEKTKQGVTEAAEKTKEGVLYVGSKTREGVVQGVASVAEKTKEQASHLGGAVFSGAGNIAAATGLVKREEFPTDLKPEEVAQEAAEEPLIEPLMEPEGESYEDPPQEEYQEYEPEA

binding result [1]: binds
binding result [2]: binds
B1: monoclonal antibody 2A1 (antibody, mouse IgG1, kappa, V domains shown)
VH: QVQLQQPGAELVKPGASVKMSCKASGYTFSSYNLHWVKQTPGQGLEWIGAIYPGNGDTSYNQKFKGKATLTADKSSSTAYMQLSSLTSEDSAVYYCTRRDYYGSRGFAYWGQGTLVTVSA
VL: DIQMNQSPSSLSASLGDTITITCHASQNINVWLSWYQQKPGNIPKLLIYKASNLHTGVPSRFSGSRSGTGFTLTISSLQPEDIATYYCQQGQSFPWTFGGGTKLEIKR
notes: also called mAb 2A1

binding result [3]: no binding
binding result [4]: no binding
B2: monoclonal antibody 4B1 produced by the hybridoma 4B1, ATCC Patent Deposit Number PTA-127017 (antibody, mouse IgG1, kappa, V domains shown)
VH: EVKLVESGGGLVQPGGSLKLSCAASGITFSSYTMSWVRQTPEKRLEWVGYISNGGGRTYYPDTVKGRFTISRDNAKNTLYLQMSSLKSEDTAMYYCARQITTAMGYYYAMDYWGQGTSVTVSS
VL: DVVMTQTPLSLPVSLGDQASISCRSSQSLVHSNGNTYLHWYLQKPGQSPKLLISKVSNRFSGVPDRFSGSGSGTDFTLKISRVEAEDLGVYFCSQSTHVPLTFGAGTKLELKR
notes: also called mAb 4B1
